Laboratory results as given in IntAct's records for PubMed 22632831.

B1: Transcription cofactor vestigial-like protein 1 (Mus musculus), Q99NC0 (parent)
chain: MEEMKKNGVWIPESSQKPVKTEWNAGSVIFTYFEGDINSMVDEHFSRALRNLKRPHKCSSSSHSDNLTLKNGVNKTRTDTSHTDRERKVESSQTENSGELKDVPVEEKGTNKSMPPNQRHLSSWTIAQPAASPENGARSSSLDEYGLKAMDQHSLSMPKTPSALPLEPWHFSSLARPGFIAPAYFPVFPDRHLTPEVYRVFPDRHLTPEVYHVFPDRHLTPEVYPDGRCGPLQHLVQQDRYQNHPLEPAARENCSPAKIAGSTGSLMNLPPYPVHYKKKICARGAASASLDDERSPSPKRRRDAYYY

Variants of: B1
Details: with Tead4, Q62296-1
Tead4, Q62296-1, sequence (Q62296 whole entry): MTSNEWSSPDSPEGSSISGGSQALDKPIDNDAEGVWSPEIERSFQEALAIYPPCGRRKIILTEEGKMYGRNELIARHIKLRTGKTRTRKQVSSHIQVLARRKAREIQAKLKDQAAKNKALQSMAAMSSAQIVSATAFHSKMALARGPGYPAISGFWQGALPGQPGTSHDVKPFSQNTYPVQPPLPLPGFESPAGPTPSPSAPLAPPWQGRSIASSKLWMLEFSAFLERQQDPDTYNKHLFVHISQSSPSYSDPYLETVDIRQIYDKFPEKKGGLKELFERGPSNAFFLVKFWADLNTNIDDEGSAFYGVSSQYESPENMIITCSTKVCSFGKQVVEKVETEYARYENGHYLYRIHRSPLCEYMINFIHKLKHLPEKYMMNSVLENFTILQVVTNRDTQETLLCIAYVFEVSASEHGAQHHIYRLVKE

| effect of a mutation on the interaction | Variant |
| --- | --- |
| decreasing interaction strength | H44A;F45A |
